Biological target: recombinant FVIII (Prospec Bio) (UniProt P00451)
Experiment: ELISA: vWF-Fc variant coated on the plate, recombinant FVIII at 0-4000 pM, detected with sheep anti-FVIII polyclonal antibody and HRP secondary antibody

UniProt P00451, sequence (P00451 other isoform, or with tags, fused parts or gaps limits assumed): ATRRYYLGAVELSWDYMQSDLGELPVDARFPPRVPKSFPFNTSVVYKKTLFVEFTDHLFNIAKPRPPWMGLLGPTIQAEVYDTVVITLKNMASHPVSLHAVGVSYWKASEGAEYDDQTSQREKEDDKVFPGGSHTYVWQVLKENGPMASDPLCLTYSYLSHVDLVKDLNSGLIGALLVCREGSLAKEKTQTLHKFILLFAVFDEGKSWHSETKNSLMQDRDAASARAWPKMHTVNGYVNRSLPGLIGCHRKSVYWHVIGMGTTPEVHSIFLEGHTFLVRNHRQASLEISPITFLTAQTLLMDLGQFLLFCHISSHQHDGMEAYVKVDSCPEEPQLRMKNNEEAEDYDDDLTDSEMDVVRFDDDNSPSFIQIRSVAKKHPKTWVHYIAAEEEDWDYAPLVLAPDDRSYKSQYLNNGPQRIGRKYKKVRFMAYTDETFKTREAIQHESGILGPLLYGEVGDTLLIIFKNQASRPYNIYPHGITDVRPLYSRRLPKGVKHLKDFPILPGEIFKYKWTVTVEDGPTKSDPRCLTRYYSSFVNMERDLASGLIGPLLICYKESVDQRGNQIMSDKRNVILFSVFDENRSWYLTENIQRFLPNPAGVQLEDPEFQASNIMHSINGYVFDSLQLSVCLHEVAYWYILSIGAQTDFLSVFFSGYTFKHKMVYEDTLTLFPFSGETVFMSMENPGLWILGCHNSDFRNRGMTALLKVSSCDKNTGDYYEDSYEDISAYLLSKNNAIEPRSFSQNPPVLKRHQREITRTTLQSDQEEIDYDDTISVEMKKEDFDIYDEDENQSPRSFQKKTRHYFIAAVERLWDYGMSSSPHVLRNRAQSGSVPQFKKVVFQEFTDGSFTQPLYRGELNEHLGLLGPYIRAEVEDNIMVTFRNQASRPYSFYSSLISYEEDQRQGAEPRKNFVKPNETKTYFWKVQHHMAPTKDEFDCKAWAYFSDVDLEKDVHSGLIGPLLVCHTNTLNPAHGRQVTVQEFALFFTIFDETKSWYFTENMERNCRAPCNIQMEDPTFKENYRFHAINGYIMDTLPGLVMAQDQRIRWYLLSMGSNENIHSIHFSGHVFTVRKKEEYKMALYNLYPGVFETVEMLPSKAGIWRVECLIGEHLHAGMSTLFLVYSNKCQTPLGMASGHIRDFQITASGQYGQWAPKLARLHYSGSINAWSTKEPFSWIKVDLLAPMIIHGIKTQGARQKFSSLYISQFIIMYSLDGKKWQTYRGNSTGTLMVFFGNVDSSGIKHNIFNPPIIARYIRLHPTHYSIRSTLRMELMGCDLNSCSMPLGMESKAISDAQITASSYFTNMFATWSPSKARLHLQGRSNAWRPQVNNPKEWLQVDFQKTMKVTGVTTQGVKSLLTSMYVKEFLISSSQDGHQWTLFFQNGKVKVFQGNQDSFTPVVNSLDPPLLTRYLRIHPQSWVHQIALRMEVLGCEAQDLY

**Q.** With Pro-D′D3-Fc (Fc fusion) as the substance, how does the Kd read?
**A.** 500 pM
